# Publication PMC2807882, “Conservation of DNA-binding specificity and oligomerisation properties within the p53 family”
# T1: ΔNp63β (Homo sapiens, UniProt Q9H3D4-4 1-461)
# T1 sequence: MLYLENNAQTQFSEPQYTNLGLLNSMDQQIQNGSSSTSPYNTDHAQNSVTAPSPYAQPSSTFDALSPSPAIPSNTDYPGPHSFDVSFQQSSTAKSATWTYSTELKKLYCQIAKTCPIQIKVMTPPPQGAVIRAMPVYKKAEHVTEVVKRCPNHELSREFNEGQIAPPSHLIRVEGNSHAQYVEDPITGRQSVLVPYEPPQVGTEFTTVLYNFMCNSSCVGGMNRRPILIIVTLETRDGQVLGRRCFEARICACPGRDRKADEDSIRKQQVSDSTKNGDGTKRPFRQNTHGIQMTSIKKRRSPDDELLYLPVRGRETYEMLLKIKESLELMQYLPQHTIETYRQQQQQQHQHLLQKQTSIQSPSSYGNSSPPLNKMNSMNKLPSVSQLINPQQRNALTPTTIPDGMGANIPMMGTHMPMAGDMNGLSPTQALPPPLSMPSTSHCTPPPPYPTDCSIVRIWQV
# T2: ΔNp63α (Homo sapiens, UniProt Q9H3D4-2 1-586)
# T2 sequence: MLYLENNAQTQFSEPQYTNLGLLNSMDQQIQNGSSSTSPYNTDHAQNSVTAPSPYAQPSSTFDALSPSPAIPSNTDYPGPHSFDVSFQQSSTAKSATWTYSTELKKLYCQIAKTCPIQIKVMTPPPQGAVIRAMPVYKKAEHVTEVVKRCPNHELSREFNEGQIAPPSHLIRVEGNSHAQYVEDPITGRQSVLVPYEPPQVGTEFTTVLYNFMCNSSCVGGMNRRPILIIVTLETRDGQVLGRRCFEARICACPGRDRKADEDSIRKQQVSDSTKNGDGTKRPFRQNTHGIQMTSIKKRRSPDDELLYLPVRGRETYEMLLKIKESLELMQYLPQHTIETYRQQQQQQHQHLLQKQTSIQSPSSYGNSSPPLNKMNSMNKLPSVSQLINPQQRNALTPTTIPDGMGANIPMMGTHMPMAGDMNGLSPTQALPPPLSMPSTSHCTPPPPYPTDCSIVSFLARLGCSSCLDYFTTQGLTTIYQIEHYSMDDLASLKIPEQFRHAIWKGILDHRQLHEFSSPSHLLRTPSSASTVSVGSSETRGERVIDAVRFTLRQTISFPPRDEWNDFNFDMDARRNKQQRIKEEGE
# T3: Dmp53 (Drosophila melanogaster, UniProt Q9N6D8 1-385)
# T3 sequence: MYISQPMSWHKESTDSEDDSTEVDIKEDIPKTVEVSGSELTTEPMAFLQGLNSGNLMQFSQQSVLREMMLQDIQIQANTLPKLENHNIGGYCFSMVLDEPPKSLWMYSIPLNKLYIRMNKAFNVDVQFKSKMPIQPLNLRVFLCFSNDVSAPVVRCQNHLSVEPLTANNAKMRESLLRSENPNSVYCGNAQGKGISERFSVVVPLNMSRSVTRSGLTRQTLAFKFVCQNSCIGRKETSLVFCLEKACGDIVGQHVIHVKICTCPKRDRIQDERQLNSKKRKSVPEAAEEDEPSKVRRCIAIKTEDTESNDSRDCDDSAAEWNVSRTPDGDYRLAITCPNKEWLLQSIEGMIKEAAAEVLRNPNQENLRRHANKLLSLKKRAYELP
# T4: Drp53 (Danio rerio, UniProt P79734 1-373)
# T4 sequence: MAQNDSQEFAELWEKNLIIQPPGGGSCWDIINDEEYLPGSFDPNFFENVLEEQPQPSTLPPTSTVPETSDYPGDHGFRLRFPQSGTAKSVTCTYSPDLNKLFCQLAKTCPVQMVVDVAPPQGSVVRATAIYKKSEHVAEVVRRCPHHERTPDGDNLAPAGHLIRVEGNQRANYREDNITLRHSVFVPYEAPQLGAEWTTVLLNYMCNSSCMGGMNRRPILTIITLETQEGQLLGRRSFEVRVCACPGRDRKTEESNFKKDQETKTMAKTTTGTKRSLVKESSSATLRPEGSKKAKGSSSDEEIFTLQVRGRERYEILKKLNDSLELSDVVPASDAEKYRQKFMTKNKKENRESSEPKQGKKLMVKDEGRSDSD
# T5: ΔNp63γ (Homo sapiens, UniProt Q9H3D4-6 1-393)
# T5 sequence: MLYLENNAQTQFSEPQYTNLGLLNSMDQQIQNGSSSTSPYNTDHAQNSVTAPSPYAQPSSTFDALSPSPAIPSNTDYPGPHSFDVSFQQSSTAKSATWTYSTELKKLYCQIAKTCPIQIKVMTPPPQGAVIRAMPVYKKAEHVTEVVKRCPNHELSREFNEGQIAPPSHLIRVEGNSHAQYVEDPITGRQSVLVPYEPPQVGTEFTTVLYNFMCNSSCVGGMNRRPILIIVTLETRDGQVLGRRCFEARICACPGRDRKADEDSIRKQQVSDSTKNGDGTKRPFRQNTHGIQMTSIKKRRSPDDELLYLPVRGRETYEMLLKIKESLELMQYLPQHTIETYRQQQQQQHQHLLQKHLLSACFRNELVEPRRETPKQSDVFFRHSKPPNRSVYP
# What was measured:
# Experiment in all cases: anisotropy competition; 25 mM NaPi, 225 mM NaCl, 10% v/v glycerol, 5 mM DTT, 0.2 mg/mL BSA, 22°C; 20 nM labelled DNA; pH not stated for the binding assay
# Conditions in all cases: protein: recombinant; tags: N-terminal 6xHis-lipoyl-TEV tag, cleaved; chain copies: 4
# ΔNp63β = target: T1, ΔNp63β
# ΔNp63α = target: T2, ΔNp63α
# Dmp53 = target: T3, Dmp53
# Drp53 = target: T4, Drp53
# Mmp53 = Mmp53 (Mus musculus, UniProt P02340 1-390)
# Mmp53, sequence (P02340 whole entry): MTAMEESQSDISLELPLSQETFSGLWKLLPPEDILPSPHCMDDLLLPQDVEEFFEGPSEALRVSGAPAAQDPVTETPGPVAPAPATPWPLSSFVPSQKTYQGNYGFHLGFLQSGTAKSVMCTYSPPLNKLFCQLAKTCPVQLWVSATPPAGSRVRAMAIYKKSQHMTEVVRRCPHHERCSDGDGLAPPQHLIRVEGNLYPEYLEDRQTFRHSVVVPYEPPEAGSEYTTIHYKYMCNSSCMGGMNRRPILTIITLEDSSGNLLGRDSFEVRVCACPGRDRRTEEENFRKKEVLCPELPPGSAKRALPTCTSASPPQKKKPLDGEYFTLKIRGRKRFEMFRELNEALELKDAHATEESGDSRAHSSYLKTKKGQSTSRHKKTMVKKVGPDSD
# ΔNp63γ = target: T5, ΔNp63γ
binder,measurement,setting,value
Ref competitor (dsDNA) DNA 1: CGCGGACATGTCCGGACATGTCCCGC DNA 2: GCGGGACATGTCCGGACATGTCCGCG,Kd,ΔNp63β,-7.45 log10(M)
same,Kd,ΔNp63α,-7.21 log10(M)
same,Kd,Dmp53,-7.56 log10(M)
same,Kd,Drp53,-7.42 log10(M)
same,Kd,Mmp53,-6.88 log10(M)
same,Kd,ΔNp63γ,-7.48 log10(M)
